The binders below were run against T1, SARS-CoV-2 Wuhan-Hu-1 recombinant spike protein (trimer) (SARS-CoV-2 Wuhan-Hu-1, UniProt P0DTC2) (assay: ELISA). Conditions: both partners purified.
T1 construct: source: bought: Sino Biologics

Binder	binding result
C68.88 (antibody, V domains shown) VH: QVQLQESGPGLVKPSETLSLTCSVSGGPISSSRYYWGWIRQSPGEGLEWIGTIYYSGSTYYNPSFKSRVTISVDTSKNQFSLKLSSVTAADTAVYYCATRCYDFWSGYYNREMLWFDCWGQGTLVTVSS VL: NFMLTQPHSVSESPGKTVTISCTRSSGSIASNYVQWYQQRPGSSPTTVIYENNQTPSGVPDRFSGSIDSSSNSASLTISGLKTEDEADYYCQSYDSSVVVFGGGTKLTVL	binds
C68.239 (antibody, V domains shown) VH: EVQLLESGGGLVQPGGSLRLSCAASGFTFSSYAMSWVRQAPGKGLEWVSAISGGGDNTYYADSVKGRFTISRDNSKNTLYLQMNSLRAEDTAVYFCAKNPITVVPAAWDRGYFDLWGRGTLVTVSS VL: SYELTQPPSVSVAPRKTARITCGGNNIGSYSVHWYQQRPGQAPVLVVHDDSDRPSGIPERFSGSNSGNTATLTISRVEAGDEADYYCQVWDSSSDHRGVFGGGTKLTVL	binds
C68.200 (antibody, V domains shown) VH: EVQLLESGGGLVQPGGSLRLSCTASGFTFSRYALTWVRQAPGKGLEWVSAISGSGGNTNYADSVKGRFTISRDNSKNTLYLQMNSLRAEDTAVYYCAKSPRYNNDYFDFWGQGTLVTVSS VL: DIQLTQSPSTLSASVGDRVTITCRASQSISSWLAWYQQKPGKAPKLLIYDASSLESGVPSRFSGSGSGTEFTLTISSLQPDDFATYYCQQYNTFITFGHGTRLEIK	binds
C68.203 (antibody, V domains shown) VH: EVQLLESGGGLVQPGGSLRLSCTASGFTFSRYALTWVRQAPGKGLECVSAFSGSGDSTYYADSVKGRFTISRDNSKNTLYLQMNSLRAEDTAVYYCAKSPRYNSDYFDFWGQGTLVTVSS VL: DIQLTQSPSTLSASVGDRVTITCRASQSISSWLAWYQQKPGKAPKLLIYDASSLESGVPSRFSGSGSGTEFTLTISSLQPDDFATYYCQQYNSFITFGQGTRLEIK	binds
C68.175 (antibody, V domains shown) VH: EVQLLESGGGLVQPGGSLRLSCAASGFTFSSYAMSWVRQAPGKGLEWVSGISGSGGSTYYADSVKGRFTISRDNSKNTLHLQMNSLRAEDTAVYYCAKGSRWNPDYFDYWGQGTLVTVSS VL: not shown	binds
C68.348 (antibody, V domains shown) VH: QVQLQESGPRLVKSSGTLSLTCAVSGGSISSSKWWSWVRQPPGKGLEWIGEVYHGGSTNYNPSLKSRVTISVDKAKNQFSLKLSSVTAADSAVYYCASLDSAAVFDYWGQGTLVTVSS VL: QSALTQPASVSGSPGQSITISCTGTSSDVGRFNYVSWYQQHPGKAPKLLIYDVSNRPSGVSNRFSGSKSGNTASLTISGLQAEDEADYYCNSYTSSSTLYVFGTGTKVTVL	binds
C68.185 (antibody, V domains shown) VH: QVQLVQSGAEVKKPGASVKVSCKTSGYAFTDHYVHWVRQAPGQGLEWMGVINPSGVGTSYAQMFQDRVTLTSDTSTSTVYMVLSSLRSEDTAVYYCVRDDYGVPARGWFDPWGQGTLVTVSS VL: EVVLTQSPATLSLSPGERATLSCRASQSISSYLAWYQQKPGQAPRLLIYDASNRATGVPARFSGSGSGADFTLTISSLEAEDFALYYCQHRSNWLYTFGQGTKLEIK	binds
C68.327 (antibody, V domains shown) VH: EVQLLESGGGLVQPGGSLRLSCAASGFTFGSYAMSWVRQAPGKGLEWVSAISGSGGSTYYADSVKGRFTISRDNSKNTLYLQMNSLRAEDTAVYNCAKDLWDGFHWFDSWGQGTLVTVSS VL: DIQMTQSPSSVSASVGDRVTITCRASQGISSWLAWYQQKPGKAPNLLIYSASSLQSGVPSRFSGSGSGTDFTLTISSLQPEDFATYYCQQANSFPITFGQGTRLEIK	binds
C68.183 (antibody, V domains shown) VH: EVQLLESGGGLVQPGGSLRLSCVASGFTFRNFAMSWVRQAPGKGLEWVSAISGSGDSTYYADSVKGRFTISRDNSKNTLYLQVNSLRVEDTAIYYCAKGSRGSTDYFDSWGQGTLVTVSS VL: not shown	binds
C68.121 (antibody, V domains shown) VH: EVQLVESGGGLVKPGGSLRLSCAASGFTFSDYYMTWIRQAPGKGLEWVSKITNSNSYTHYADSVKGRFTISRDNAKNSLFLHMNSLRAEDTAVYYCARAIWIGYPDDYYMDVWGKGTTVTVSS VL: SYELTQPPSVSVSPGQTARITCSGDTLPNQYVYWYQQKPGQAPVLLIYKDTERPSGIPERVSGSTSGTTVTLTISGVQAEDEADYYCQSADSSGTSFGGGTKLTVL	binds
C68.83 (antibody, V domains shown) VH: EVQLVESGGGVVQPGRSLRLSCAASGFIFSSYGMHWVRQAPGKGLEWVAVIWYDGSNKYYADSVKGRFTISRDNSKNTLYLQMNSLRAEDTAVYYCARDDPEVGCSGGSCYYYYDMDVWGQGTTVTVSS VL: SYELTQPPSVSVSPGQTARITCSGDALPKQHAHWYQQKPGQAPVLVIYKDIERPSGIPERFSGSSSGTTVTLTISGVQAEDEADYYCQSADSSVTYVVFGGGTKLTVL	binds

— paper PMC11542851 (PLOS Pathogens, 2024)
